The record followed here is patent US20200109194A1 (BLUEFIN BIOMEDICINE, published 2020).

The labels stand for the following.
T1: human TMEFF1 extracellular domain recombinant protein (plasmid BBP377, S40-V330, C-terminal 8xHis) (human, UniProt Q8IYR6 40-330)
T1 construct: Secreted from CHO cells with a non-native signal peptide (not part of the mature protein); also called hTMEFF1 ECD; hTMEFF1-ECD
T1 sequence: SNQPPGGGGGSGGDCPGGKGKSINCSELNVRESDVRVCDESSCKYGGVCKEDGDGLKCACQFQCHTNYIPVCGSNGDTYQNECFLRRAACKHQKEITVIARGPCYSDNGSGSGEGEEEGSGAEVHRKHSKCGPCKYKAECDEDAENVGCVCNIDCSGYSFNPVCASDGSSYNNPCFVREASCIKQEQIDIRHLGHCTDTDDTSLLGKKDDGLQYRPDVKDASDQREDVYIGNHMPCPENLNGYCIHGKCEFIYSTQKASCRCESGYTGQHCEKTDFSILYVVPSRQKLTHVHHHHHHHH

B1: 27G5_56A2 (antibody, V domains shown)
VH: QVQLQESGPGLVKPSETLSLTCAVSDYSISSGYYWGWIRQPPGKGLEWIGSIYHSGSTYYNPSLKSRVTISVDMSKNQFSLKLSSVTAADTAVYYCARDRDSVSWNGGRDYYYYGMDVWGQGTTVTVSS
VL: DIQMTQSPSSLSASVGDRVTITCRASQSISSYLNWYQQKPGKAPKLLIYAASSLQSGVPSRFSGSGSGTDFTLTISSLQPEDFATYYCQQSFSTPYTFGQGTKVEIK
B2: 43B2_56A6 (antibody, human IgG1, V domains shown)
VH: EVQLLESGGGLVQPGGSLRLSCAASGFTFSSYAMSWVRQAPGKGLEWVSTISGSGDSTYYADSVKGRFTISRDNSKNTLYLQMNSLRAEDTAIYYCAKFGVRGVIITNWFDPWGQGTLVTVSS
VL: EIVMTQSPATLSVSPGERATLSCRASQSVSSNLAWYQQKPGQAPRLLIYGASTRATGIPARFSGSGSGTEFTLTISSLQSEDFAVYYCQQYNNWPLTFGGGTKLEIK
B3: 50B4_56B2 (antibody, human IgG1, V domains shown)
VH: EVQLLESGGGLVQPGGSLRLSCAASGFTFSSYAMSWVRQAPGKGLEWVSTISGSGDSTYYADSVKGRFTISRDNSKNTLYLQMNSLRVEDTAIYYCAKFGVRGVIITNWFDPWGQGTLVTVSS
VL: EIVMTQSPATLSVSPGERATLSCRASQSVSSNLAWYQQKPGQVPRLLIYGASTRATGIPARFSGSGSGTEFTLTISSLQSEDFAVYYCQQYNNWPLTFGGGTKVEIK
B4: 34E1_56A4 (antibody, human IgG1, V domains shown)
VH: QVQLVESGGGVVQPGRSLRLSCAASGLTFSRYAMHWVRQAPGKGLEWVAVIWYDGSNKYYADSVKGRFTISRDTSKNTLYLQMNSLRAEDTAVYYCAREGLLWFGGMDVWGQGTTVTVSS
VL: DIVLTQSPLSLPVTPGEPASISCRSSQSLLHSNGYNYLHWYLQKPGQSPQLLIYLGSNRASGVPDRFSGSGSGTDFTLKISRVEAEDVGLYYCMQALQTPYTFGQGTKLEIK
B5: 10C10 (antibody, human IgG1, V domains shown)
VH: QVQLVESGGGVVQPGRSLRLSCATSGFTFSIYGMHWVRQAPGKGLEWVAIIWYDGNKKYYADSVKGRFTISRDNSKNTLYLQMNSLRAEDTAVYYCARDPYTSSLDYWGQGTLVTVSS
VL: DIQLTQSPSFLSASVGDRVTITCRASQGISSYLAWYQQKPGKAPKLLIYAASTLQSGVPSRFSGSGSGTEFTLTISSLQPEDFATYYCQQLNSYPLTFGGGTKLEIK
B6: M33F (antibody, human IgG1, V domains shown)
VH: QVQLQESGPGLVKPSETLSLTCAVSGYSISSGYFWGWIRQPPGKKLEWIGSIYHSGSTYYNPSLKSRVTMSVDTSKNQFSLKLSSVTAADTAVYYCAREGDCSGGICYWYFDLWGRGTLVTVSS
VL: DIQMTQSPSSLSASVGDRVTITCRASQGISNYLAWYQQKPGKVPKLLIYAASTLQSGVPSRFSGSGSGTEVTLTISSLQSEDFAVYYCQQYNKWPLTFGGGTKLEIK
B7: 18C2 (antibody, human IgG1, V domains shown)
VH: QVQLVESGGGVVQPGRSLRLSCAASGFTFSIYGMHWVRQAPGMGLEWVAIIRYDGSNKYYADSVKGRFTISRDNSKNTLYLRMNSLRAEDTAVYYCARDPFTSSLDYWGQGTLVTVSS
VL: DIQLTQSPSFLSASVGDRVTITCRASQGISSYLAWYQQKPGKAPKLLIYAASTLQSGVPSRFSGSGSGTEFTLTISSLQPEDFATYYCQQLNSYPLTFGGGTKLEIK
B8: 19D9 (antibody, human IgG1, V domains shown)
VH: QVQLVESGGGVVQPGRSLRLSCAASGFTFSIYGMHWVRQAPGKGLEWVANIWYDGSKKYYADSVKGRFTISRDNSKNTLYLQMNSLRAEDTSVYYCARDPYTSSLDYWGQGTLVTVSS
VL: DIQLTQSPSFLSASVGDRVTITCRASQGISSYLAWYQQKPGKAPKLLIYTASTLQSGVPSRFSGSGSGTEFTLTISSLQPEDFATYYCQQLNSYPLTFGGGTKLEIK
B9: 7F12 (antibody, human IgG1, V domains shown)
VH: QVQLVESGGGVVQPGRSLRLSCAASGFTFSIYGMHWVRQAPGKGLEWVAIIWYDGSDKYYADSVKGRFTISRDNSKNTLYLQMNSLRAEDTAVYYCARDPYTTSLDYWGQGTLVTVSS
VL: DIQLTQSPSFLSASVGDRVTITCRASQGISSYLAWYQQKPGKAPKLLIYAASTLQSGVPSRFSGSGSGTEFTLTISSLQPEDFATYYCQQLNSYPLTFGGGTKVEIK
B10: M1H1 (antibody, human IgG1, V domains shown)
VH: QVQLQESGPGLVKPSETLSLTCAVSGYSISSGYFWGWIRQPPGKKLEWIGSIYHSGSTYYNPSLKSRVTMSVDTSKNQFSLKLSSVTAADTAVYYCAREGDCSGGICYWYFDLWGRGTLVTVSS
VL: DIQMTQSPSSLSASVGDRVTITCRASQGISNYLAWYQQKPGKVPKLLIYAASTLQSGVPSRFSGSGSGTDFTLTISSLQPEDFAVYYCQQYNKWPLTFGGGTKLEIK
B11: 37G7 (antibody, human IgG1, V domains shown)
VH: QVQLVESGGGVVQPGRSLRLSCAASGFTFTSYGMHWVRQAPGKGLEWVAVVWYEGSSKFYVDSVKGRFIISRDNSKNTLYLQMNSLRAEDTAVYYCARAYCGGDCYPFDYWGQGTLVTVSS
VL: DIQMTQSPSSLSASVGDRVTITCRASQGISNYLAWYQQKPGKVPKLLIYAASTLQSGVPSRFSGSGSGTDFTLTISSLQPEDVATYYCQKYNSAPWTFGQGTKVEIK
B12: M17 (antibody, human IgG1, V domains shown)
VH: QVQLVESGGGVVQPGRSLRLSCAASGFTFRSYGMHWVRQAPGKGLEWVALIWYDGGDQYYADSVKGRFTISRDSSKSTLYLQMNSLRAEDTAVYYCARAQCGDDCYPFDYWGQGTLVTVSS
VL: DIQMTQSPSSLSASVGDRVTITCRASQGIYNYLAWYQQKPGKVPKLLIYAASTLQSGVPSRFSGSGSGTDFTLTISSLQPEDVATYYCQKYNSDPWTFGQGTKLEIK
B13: 29C4 (antibody, human IgG1, V domains shown)
VH: QVQLVESGGGVVQPGRSLRLSCAASGFTFSNYGMHWVRQAPGKGLEWVAVIWYDGGPKFYADSVKGRFTISRDNSKNTLYLQMNSLRAEDTAVYYCARSYCGGDCYPFDYWGQGDLVTVSS
VL: DIQMTQSPSSLSASVGDRVTITCRASQGISNYLAWYQQKPGKVPKLLIYAASTLQSGVPSRFSGSGSGTDFTLTISSLQPEDVATYYCQKYYSAPWTFGQGTKVEIK
B14: 35B1 (antibody, human IgG1, V domains shown)
VH: QVQLVESGGGVVQPGRSLRLSCAASGFTFTTYGMHWVRQAPGKGLEWVAVVWFEGNSKFYIDSVKGRFIISRDNSKNTLFLQMNSLRAEDTAVYYCARANCGADCYPFDYWGQGTLVTVSS
VL: DIQMTQSPSSLSASVGDRVTITCRASQGISNYLAWYQQKPGKVPKLLIYAASTLQSGVPSRFSGSGSGTDFSLTISSLRPEDVATYYCQKYNSAPWTFGQGTKVEIK
B15: 11F9 (antibody, human IgG1, V domains shown)
VH: EVQLVESGGGLVKPGGSLRLSCAASGFTFSYAWMSWVRQAPGKGLEWVGRIKSKTDGGTTDYAAPVKGRFTISRDDSKNTLYLQLNSLKIEDTAVYYCTTGRIAAAGFDYWAQGTLVTVSS
VL: DAVVTQESALTTSPGETVTLTCRSSTGTVTTSNYANWVQEKPDHLFTGLIAGTNNRAPGVPARFSGSLIGDKAVLTITGAQTEDEAIYFCALWYSNHWVFGGGTKLTVLG
B16: 3H9 (antibody, human IgG1, V domains shown)
VH: EVQLVESGGGLVKPGGSLRLSCAASGFVFSYAWMNWVRQAPGKGLEWVGRIKSKTEGGTTDNAAPVKGRFTISREDSKNTLYLQLNSLKIEDTAVYYCTTGRIAAAGFDYWGQGTLVTVSS
VL: DAVVTQESALTTSPGETVTLTCRSSTGTVTTSNYANWVQEKPDHLFTGLIAGTNNRAPGVPARFSGSLIGDKAALTITGAQTEDEAIYFCALWYSNHWVFGGGTKLTVLG
B17: 6C11 (antibody, human IgG1, V domains shown)
VH: QVQLQQSGPGLVKPSQTLSLTCAISGDSVSSNSAAWNWIRQSPSRGLEWLGRTYYRSKWYNDYPVSVKSRITINPDTSKNQVSLQLNPVTPEDTAVYYCTREQGYSSSRYYYYYGMDVWGQGTTVTVSS
VL: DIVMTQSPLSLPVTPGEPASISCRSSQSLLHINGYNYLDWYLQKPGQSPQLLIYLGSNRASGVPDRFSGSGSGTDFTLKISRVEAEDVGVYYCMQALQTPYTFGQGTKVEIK

The first assay deals with T1, human TMEFF1 extracellular domain …. The assay is described as follows: BLI (Octet Red), antibody on Protein A biosensor, recombinant hTMEFF1 ECD as analyte. On the procedure:
The affinity of antibodies to various recombinant TMEFF1 protein was determined on an Octet Red™ instrument. After loading reagents into a 96-well plate, the Octet Red™ with Protein A-conjugated biosensors was programmed as follows: 30 seconds for baseline #1; 120 seconds to immobilize the antibody; 30 seconds for baseline #2; 300 seconds for association of antibody to recombinant TMEFF1; and 300-600 seconds for dissociation of recombinant TMEFF1 from the antibody.
Affinity of thirteen antibodies was calculated using hTMEFF1 ECD recombinant protein by Octet™.
In general terms: Biolayer interferometry detects binding as a change in optical thickness at a sensor tip.
What is called Kd is the constant that tells how readily two partners part at equilibrium. For the molecule B1, the Kd came to 69 nM. Still for that read-out and setting: with B2 the figure was 39 nM; with B3, 52 nM. On the same count and under the same terms, then B4, with 98 nM.

The next assay has the same target. The assay is described as follows: BLI (Octet Red), His-tagged TMEFF1 ECD and deletion mutants on anti-Penta-His biosensors, unpurified recombinant antibody. As to the method: TMEFF1 recombinant proteins expressing 3 different deletion mutants, AFS1 (AFollistatin Domain 1), AFS2 (AFollistatin Domain 2) or AFS1&FS2 were used to identify binding domains among different antibodes using an Octet Red instrument with Anti-Penta-His (HIS 1K) biosensors. […] 100 ngs of purified TMEFF1 ECD was run along with unpurified supernatant of transfected CHO cells with the different deletion mutants. HIS 1K biosensors were loaded by submerging the biosensors into wells containing 10 ug/ml of full length TMEFF1 or one of 3 different deletion mutants (AFS1, AFS2 or AFS1&FS2) for 60 seconds. Following the loading step, the biosensors were then dipped for 30 seconds in PBS before immersion for 30 seconds in 200 ul of unpurified recombinant antibodies for 30 seconds. The biosensors were then dipped briefly (30 seconds) in PBS to observe any dissociation. […] Differential binding to the deletion mutants allowed for determination of binding sites on TMEFF1 recombinant protein. For cases where the antibody bound all 3 recombinant proteins, the binding is outside of the deleted domains.
26 of the identified antibodies were checked for epitope domain binding by Octet™ using the hTMEFF1-ECD recombinant deletion mutants (see Table 7, below).
Consider B5, for which the binding result is “binds”. On to B6, for which the binding result is recorded as “binds”.

As to B7, the binding result was “binds”. For the molecule B8, the binding result is on record as “binds”. On the same count and under the same terms, then B9, with “binds”; and B10, with “binds”; and B11, with “binds”. Regarding B12, the binding result was “binds”. The same measure, in the same setting: then B13, with “binds”. The same measure, in the same setting: with B14 the entry was “binds”; with B15, “binds”; with B16, “binds”. The same measure, in the same setting: with B17 the entry was “binds”.
